± gives the standard error. This sample holds only a part of the variants without activity.
B1: glmS ribozyme (parent)
chain: AUAAAAGCGCCAGAACUACAGAAAUGUAGUUGACGAGGAGGAGGUUUAUCGAAUUUUCGGCGGAUGCCUCCAAA

Experiments:
Conditions in all cases: with glucosamine-6-phosphate
[1] = variants of: B1; test: self-cleavage kobs at 40 uM GlcN6P; higher = faster cleavage; RNA array
How it was run: (§1)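 Glucosamine-6-phosphate in HEPES/KCl/Mg(OAc)2 buffer, at 40 μM to 10 mM, was flowed over barcoded ribozyme variants transcribed in situ by E. coli RNA polymerase on sequenced MiSeq chips. Tracking was through a hybridised Cy3 probe at 37 °C. kobs, kcat and KM came from exponential decay fits and weighted Michaelis–Menten fits of normalised per-tile medians.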

[2] = variants of: B1; test: self-cleavage kobs at 640 uM GlcN6P; higher = faster cleavage; RNA array
How it was run: as §1

[3] = variants of: B1; test: self-cleavage kobs at 10000 uM GlcN6P; higher = faster cleavage; RNA array
How it was run: as §1

[4] = variants of: B1; test: self-cleavage kobs at 160 uM GlcN6P; higher = faster cleavage; RNA array
How it was run: as §1

[5] = variants of: B1; test: self-cleavage kobs at 2500 uM GlcN6P; higher = faster cleavage; RNA array
How it was run: as §1

A48C C61U C67G
self-cleavage kobs at 40 uM GlcN6P [1]: < 1e-05 s⁻¹ | self-cleavage kobs at 640 uM GlcN6P [2]: < 1e-05 s⁻¹ | self-cleavage kobs at 10000 uM GlcN6P [3]: < 1e-05 s⁻¹

C8U G43U
self-cleavage kobs at 40 uM GlcN6P [1]: < 1e-05 s⁻¹ | self-cleavage kobs at 160 uM GlcN6P [4]: < 1e-05 s⁻¹ | self-cleavage kobs at 2500 uM GlcN6P [5]: < 1e-05 s⁻¹ | self-cleavage kobs at 10000 uM GlcN6P [3]: < 1e-05 s⁻¹

A33U G41A
self-cleavage kobs at 40 uM GlcN6P [1]: < 1e-05 s⁻¹ | self-cleavage kobs at 640 uM GlcN6P [2]: < 1e-05 s⁻¹ | self-cleavage kobs at 10000 uM GlcN6P [3]: 4.33e-05 ± 9.1e-06 s⁻¹

A6U G35A
self-cleavage kobs at 40 uM GlcN6P [1]: < 1e-05 s⁻¹ | self-cleavage kobs at 160 uM GlcN6P [4]: < 1e-05 s⁻¹ | self-cleavage kobs at 640 uM GlcN6P [2]: < 1e-05 s⁻¹

A33G G63A
self-cleavage kobs at 40 uM GlcN6P [1]: < 1e-05 s⁻¹ | self-cleavage kobs at 160 uM GlcN6P [4]: < 1e-05 s⁻¹ | self-cleavage kobs at 10000 uM GlcN6P [3]: < 1e-05 s⁻¹

A14C A36G A48U G59A
self-cleavage kobs at 40 uM GlcN6P [1]: < 1e-05 s⁻¹ | self-cleavage kobs at 640 uM GlcN6P [2]: < 1e-05 s⁻¹ | self-cleavage kobs at 2500 uM GlcN6P [5]: < 1e-05 s⁻¹ | self-cleavage kobs at 10000 uM GlcN6P [3]: < 1e-05 s⁻¹

A23C
self-cleavage kobs at 40 uM GlcN6P [1]: 0.00185 ± 0.00044 s⁻¹ | self-cleavage kobs at 160 uM GlcN6P [4]: 0.00277 ± 0.00082 s⁻¹ | self-cleavage kobs at 640 uM GlcN6P [2]: 0.00459 ± 0.0012 s⁻¹ | self-cleavage kobs at 2500 uM GlcN6P [5]: 0.0102 ± 0.0033 s⁻¹ | self-cleavage kobs at 10000 uM GlcN6P [3]: 0.0549 ± 0.021 s⁻¹

C11U G63U
self-cleavage kobs at 40 uM GlcN6P [1]: < 1e-05 s⁻¹ | self-cleavage kobs at 2500 uM GlcN6P [5]: < 1e-05 s⁻¹ | self-cleavage kobs at 10000 uM GlcN6P [3]: < 1e-05 s⁻¹

G29U G41U G51A
self-cleavage kobs at 40 uM GlcN6P [1]: < 1e-05 s⁻¹ | self-cleavage kobs at 2500 uM GlcN6P [5]: < 1e-05 s⁻¹

C11A C50G
self-cleavage kobs at 40 uM GlcN6P [1]: 5.74e-05 ± 1.4e-05 s⁻¹ | self-cleavage kobs at 160 uM GlcN6P [4]: 0.000276 ± 7.2e-05 s⁻¹ | self-cleavage kobs at 640 uM GlcN6P [2]: 0.000195 ± 4e-05 s⁻¹ | self-cleavage kobs at 2500 uM GlcN6P [5]: 9.24e-05 ± 1.4e-05 s⁻¹ | self-cleavage kobs at 10000 uM GlcN6P [3]: 8.61e-05 ± 1.6e-05 s⁻¹

A15C G43U U54C
self-cleavage kobs at 40 uM GlcN6P [1]: < 1e-05 s⁻¹ | self-cleavage kobs at 10000 uM GlcN6P [3]: < 1e-05 s⁻¹

A6C G37A
self-cleavage kobs at 40 uM GlcN6P [1]: < 1e-05 s⁻¹ | self-cleavage kobs at 160 uM GlcN6P [4]: < 1e-05 s⁻¹ | self-cleavage kobs at 2500 uM GlcN6P [5]: < 1e-05 s⁻¹ | self-cleavage kobs at 10000 uM GlcN6P [3]: < 1e-05 s⁻¹

G7U G9C A42G A52U
self-cleavage kobs at 40 uM GlcN6P [1]: < 1e-05 s⁻¹ | self-cleavage kobs at 640 uM GlcN6P [2]: < 1e-05 s⁻¹

C34A U56C A64C
self-cleavage kobs at 40 uM GlcN6P [1]: < 1e-05 s⁻¹

G32C G38C G60C C67G
self-cleavage kobs at 40 uM GlcN6P [1]: < 1e-05 s⁻¹ | self-cleavage kobs at 640 uM GlcN6P [2]: < 1e-05 s⁻¹ | self-cleavage kobs at 10000 uM GlcN6P [3]: < 1e-05 s⁻¹

G13U G38U A52G C68G U69G
self-cleavage kobs at 40 uM GlcN6P [1]: 0.000165 ± 5.9e-05 s⁻¹ | self-cleavage kobs at 10000 uM GlcN6P [3]: 8.14e-05 ± 2.1e-05 s⁻¹

A6G A33U A53U
self-cleavage kobs at 40 uM GlcN6P [1]: < 1e-05 s⁻¹ | self-cleavage kobs at 10000 uM GlcN6P [3]: < 1e-05 s⁻¹

A33U A48C
self-cleavage kobs at 40 uM GlcN6P [1]: < 1e-05 s⁻¹ | self-cleavage kobs at 160 uM GlcN6P [4]: < 1e-05 s⁻¹ | self-cleavage kobs at 640 uM GlcN6P [2]: < 1e-05 s⁻¹ | self-cleavage kobs at 2500 uM GlcN6P [5]: < 1e-05 s⁻¹ | self-cleavage kobs at 10000 uM GlcN6P [3]: < 1e-05 s⁻¹

A14U G35U G44C U57C
self-cleavage kobs at 40 uM GlcN6P [1]: < 1e-05 s⁻¹ | self-cleavage kobs at 2500 uM GlcN6P [5]: < 1e-05 s⁻¹ | self-cleavage kobs at 10000 uM GlcN6P [3]: < 1e-05 s⁻¹

G43C C70G
self-cleavage kobs at 40 uM GlcN6P [1]: < 1e-05 s⁻¹ | self-cleavage kobs at 640 uM GlcN6P [2]: < 1e-05 s⁻¹ | self-cleavage kobs at 2500 uM GlcN6P [5]: < 1e-05 s⁻¹ | self-cleavage kobs at 10000 uM GlcN6P [3]: < 1e-05 s⁻¹

G63A U65C
self-cleavage kobs at 40 uM GlcN6P [1]: < 1e-05 s⁻¹ | self-cleavage kobs at 640 uM GlcN6P [2]: < 1e-05 s⁻¹ | self-cleavage kobs at 10000 uM GlcN6P [3]: < 1e-05 s⁻¹
